This passage reports EC50 (read off the curve) results from patent US20250101135A1.

For orientation: EC50 (read off the curve) means the midpoint of the concentration-response curve.

Assay [1] has as its target mouse 4-1BB on activated mouse splenocytes (mouse) (UniProt P20334). In words: flow cytometry, activated mouse splenocytes, CD4+ T cells, PE anti-human IgG Fc secondary, MFI baseline corrected. In general terms: A flow cytometer gives signals particle by particle.
The target is the same in assay [2]. In words: flow cytometry, activated mouse splenocytes, CD8+ T cells, PE anti-human IgG Fc secondary, MFI baseline corrected.

Sequence of mouse 4-1BB on activated mouse splenocytes (mouse) (P20334 24-256): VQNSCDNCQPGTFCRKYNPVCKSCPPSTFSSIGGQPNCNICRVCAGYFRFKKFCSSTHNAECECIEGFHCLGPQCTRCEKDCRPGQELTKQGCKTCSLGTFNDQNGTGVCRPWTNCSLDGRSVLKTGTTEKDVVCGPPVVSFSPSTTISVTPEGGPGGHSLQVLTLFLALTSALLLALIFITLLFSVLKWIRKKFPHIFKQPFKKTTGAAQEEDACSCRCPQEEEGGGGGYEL

Take “anti-mouse CD137-specific human IgG1 P329G LALA antibody (clone Lob12.3)”: the EC50 (read off the curve) in assay [1] worked out at 0.08 nM; in assay [2], 0.09 nM.
